Reference: publication PMC2695463, “Conformational flexibility and molecular interactions of an archaeal homologue of the Shwachman-Bodian-Diamond syndrome protein”

Target: T1, mthSBDS (Methanothermobacter thermautotrophicus, UniProt O26781 1-232, R175M)
T1 sequence: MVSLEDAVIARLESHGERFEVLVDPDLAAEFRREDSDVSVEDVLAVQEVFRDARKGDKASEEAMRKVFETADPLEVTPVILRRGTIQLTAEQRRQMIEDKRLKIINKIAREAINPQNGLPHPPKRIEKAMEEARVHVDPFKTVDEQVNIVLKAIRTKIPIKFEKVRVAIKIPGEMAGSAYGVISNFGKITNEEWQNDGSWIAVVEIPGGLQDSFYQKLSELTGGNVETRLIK
Test: EMSA; SPR: 10 mM HEPES pH 7.5, 150 mM NaCl, 5 uM EDTA, 0.05% P20, +/- 5 mM MgCl2, temperature not stated; SELEX: 25 mM Tris pH 7.5, 0.5 M NaCl; EMSA: protein 1e-12 to 1e-4 M, buffer not stated
Settings: protein: recombinant; tags: N-terminal 19-aa extension with His6 (pET28a)

Q: Does AAAAAAAAAAAAAAAAAAAAAAAAAAAAAA (ssRNA) [30-base poly(A) RNA] bind?
A: Result: no binding
